Data taken from the supplement of paper PMC7125110.
± gives the standard error. For some of these results: Variants at the floor of the assay were thinned out.

B1: glmS ribozyme (parent)
chain: AUAAAAGCGCCAGAACUACAGAAAUGUAGUUGACGAGGAGGAGGUUUAUCGAAUUUUCGGCGGAUGCCUCCAAA

Tests used:
Conditions in all cases: with glucosamine-6-phosphate
glucosamine-6-phosphate [1] = variants of: B1; assay: kcat; higher = faster cleavage; RNA array
Summary of the method: (§1)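 Tiles bearing barcoded ribozyme variants, transcribed in situ by E. coli RNA polymerase on sequenced MiSeq chips, were imaged over ~14 h at 37 °C using a hybridised Cy3 probe. Glucosamine-6-phosphate was supplied at 40 μM to 10 mM in HEPES/KCl/Mg(OAc)2 buffer. kobs came from one- or two-exponential decay fits to normalised per-tile medians, and weighted Michaelis–Menten fits then provided kcat and KM.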

glucosamine-6-phosphate [2] = variants of: B1; assay: KM; higher = weaker cofactor use; RNA array
Summary of the method: as §1

glucosamine-6-phosphate [3] = variants of: B1; assay: self-cleavage kobs at 40 uM GlcN6P; higher = faster cleavage; RNA array
Summary of the method: as §1

glucosamine-6-phosphate [4] = variants of: B1; assay: self-cleavage kobs at 160 uM GlcN6P; higher = faster cleavage; RNA array
Summary of the method: as §1

glucosamine-6-phosphate [5] = variants of: B1; assay: self-cleavage kobs at 640 uM GlcN6P; higher = faster cleavage; RNA array
Summary of the method: as §1

glucosamine-6-phosphate [6] = variants of: B1; assay: self-cleavage kobs at 2500 uM GlcN6P; higher = faster cleavage; RNA array
Summary of the method: as §1

glucosamine-6-phosphate [7] = variants of: B1; assay: self-cleavage kobs at 10000 uM GlcN6P; higher = faster cleavage; RNA array
Summary of the method: as §1

Variant	kcat (glucosamine-6-phosphate [1]) [s⁻¹]	KM (glucosamine-6-phosphate [2]) [µM]	self-cleavage kobs at 40 uM GlcN6P (glucosamine-6-phosphate [3]) [s⁻¹]	self-cleavage kobs at 160 uM GlcN6P (glucosamine-6-phosphate [4]) [s⁻¹]	self-cleavage kobs at 640 uM GlcN6P (glucosamine-6-phosphate [5]) [s⁻¹]	self-cleavage kobs at 2500 uM GlcN6P (glucosamine-6-phosphate [6]) [s⁻¹]	self-cleavage kobs at 10000 uM GlcN6P (glucosamine-6-phosphate [7]) [s⁻¹]
U45A U47G	0.0105 ± 0.0027	1910 ± 690	0.000279 ± 6e-05	0.000689 ± 0.00013	0.00261 ± 0.00054	0.00915 ± 0.0018	0.00802 ± 0.0015
A15U A53U	0.00543 ± 0.0013	2950 ± 940	9.26e-05 ± 9.9e-06	0.000245 ± 3.8e-05	0.000755 ± 0.00012	0.00314 ± 0.00055	0.0042 ± 0.00042
C8A C70U	< 1e-05			< 1e-05			
A15G G51U C71A	1.45e-05 ± 1.7e-06	510 ± 210					< 1e-05
C50U A53U	5.88e-05 ± 7.9e-06	5390 ± 2000	< 1e-05				3.82e-05 ± 8.6e-06
A12C G29U U47G	0.00126 ± 0.00043	4280 ± 2100			0.000151 ± 3.1e-05	0.000697 ± 0.00018	0.000831 ± 0.00019
A33U U55C C61A	1.69e-05 ± 5.1e-06						
A12U G32U	0.000501 ± 4.8e-05	4270 ± 690		2.63e-05 ± 1.2e-05	6.09e-05 ± 8.4e-06	0.000196 ± 2.1e-05	0.000345 ± 3.4e-05
G41U U46C	8.91e-05 ± 1.3e-06	676 ± 50			4.34e-05 ± 1.9e-05	7.05e-05 ± 1.8e-05	8.33e-05 ± 1.3e-05
G41A U46G	0.00092 ± 0.00015	2030 ± 530		6.59e-05 ± 1.8e-05	0.000206 ± 4.4e-05	0.000537 ± 0.00011	0.000747 ± 0.00018
G35C G40U	< 1e-05		< 1e-05		< 1e-05	< 1e-05	< 1e-05
A6U C71A	5.43e-05 ± 1.1e-06	1730 ± 140				3.22e-05 ± 1.3e-05	4.63e-05 ± 1.1e-05
A14G U57G	0.000171 ± 2.6e-06	2380 ± 88			3.71e-05 ± 8e-06	8.67e-05 ± 9.4e-06	0.000139 ± 1.3e-05
U45C U65G	0.000191 ± 3.7e-05	1810 ± 840			4.57e-05 ± 9.8e-06	0.000188 ± 4e-05	0.000154 ± 2e-05
U47A U65C	0.000833 ± 0.00017	2410 ± 980			0.000158 ± 3.6e-05	0.000533 ± 0.00012	0.000645 ± 0.00011
